# From patent US20020156245A1
# Target: human Ptch (SEQ ID NO:4) (human) (UniProt Q13635)
# Assay: Scatchard analysis of displacement of 125I-Shh from 293 cells expressing Ptch
row,Kd,Substance
1,2.6 nM,Dhh (SEQ ID NO:13) (from UniProt Q61488 23-198) (ligand)
2,1 nM,Ihh (SEQ ID NO:29) (from UniProt P97812 28-202) (ligand)
3,1 nM,"Shh (SEQ ID NO:14), 19 kD amino terminal fragment of murine Shh (from UniProt Q62226 25-198) (ligand)"
